Test results taken from patent publication US20050079156A1, “Method of treating endometreosis” (priority 2001, published 2005).
One block for each molecule: values may come before it.

Columns and labels:
Assay type in all cases: cell-based
human preadipocytes = test: Cytokine stimulation of estradiol production in human preadipocytes; details: 72 hr, FIG. 9
Procedure: […] The amount of estradiol release in the conditioned media was determined by radioimmunoassay for estradiol using the Active™ Estradiol EIA kit according to the manufacturer's instructions (catalog no. DSL-10-4300, Diagnostic Systems Laboratories, Inc., Webster, Tex.). Each value represents the mean±S.E.M. of triplicate wells. Similar results were reproducible in 10 additional experiments using cells derived from either male or female patients.

aromatase mRNA = test: Aromatase mRNA expression in human adipocytes by RT-PCR; details: for aromatase mRNA expression (induction by cytokine alone): cytokine 0.1 ug/ml
Procedure: Adipocyte cultures were treated with IL-1-β, IFN-γ, TNF-α, and combinations of IL-1-β, and IFN-γ and TNF-α and IFN-γ. Subsequently, total RNA from cultured adipocytes was isolated using conventional methods. The reverse transcriptase polymerase chain reaction (RT-PCR) was performed using aromatase specific primers. The amplified aromatase cDNA fragments produced by RT-PCR were separated on an agarose gel. As shown in the FIG. 3, IL-1 and TNF alone induce transcription of aromatase mRNA compared to untreated control. However, the administration of IFN-γ inhibits the transcription of aromatase mRNA when given together IL-1 or TNF.
Human adipocytes (from one flask with 100% confluence) obtained from Zen-Bio,Inc were cultured for 72 hr in the presence or absence of 0.1 ug/ml of different Cytokines as indicated with and without IFN-γ (0.1 ug/ml, all Cytokines were purchased from R&D except FAS ligand, TRAIL and OX40 Ligands were obtained from Alexis). Total RNA was extracted for RT-PCR (30 cycles with 50 ng RNA/each sample) using human aromatase and GAPDH specific oligos (20 mers).

human adipocytes = test: Estradiol production in cultured human adipocytes (estradiol in conditioned media); details: for estradiol production stimulated by a mixture of 6 cytokines: mix of IL-1b, TNF-α, IL-6, IL-8, IL-11, oncostatin M 0.01 ug/ml each, IFN-α 1 ug/ml, IFN-b 2 ug/ml, FIG. 4; for estradiol production (effect of cytokine alone): human adipocytes, different doses of IL-1α and IL-1β
Procedure: Human subcutaneous cultured adipocytes, catalog nos. SP-1012, SP-1024, SP-1096, SP-75, or SP-25 were purchased from Zen-Bio, Inc. (Research Triangle Park, N.C.) and cultured according to the manufacturer's instructions.
Human adipocytes (approximately 100,000 cells/well) were cultured for 24 hr in the presence or absence of different doses of IL-1α and IL-1β (as indicated) with and without IFN-γ (0.1 ug/ml, IL-1α, IL-1β and IFN-γ were purchased from R&D). The amount of estradiol release in the conditioned media was determined by radioimmunoassay for estradiol using the Active™ Estradiol EIA kit according to the manufacturer's instructions (catalog no. DSL-10-4300, Diagnostic Systems Laboratories, Inc., Webster, Tex.). Each value represents the mean±S.E.M. of triplicate wells.
Human adipocytes (100,000 cells/well) were cultured for 72 hr with and without increasing doses of IFN-γ (0.0001 to 1 ug/ml, purchased from R&D). The amount of estradiol in the conditioned media was determined by radioimmunoassay as described in Example 1. Each value represents the mean±S.E.M. of triplicate wells.
Human adipocytes (100,000 cells/well) were cultured for 72 hr in the presence or absence of different doses of the mix Cytokines (IL-1b, TNF-α, IL-6, IL-8, IL-11 and oncostatin M, 0.01 ug/ml/each—dilution as indicated) with and without IFN-γ (0.1 ug/ml), […] (1 ug/ml) or IFN-b (2 ug/ml). IFN-α was purchased from PBL while IFN-b was obtained from Serono. The amount of estradiol release in the conditioned media was determined by radioimmunoassay as described in Example 1. Each value represents the mean±S.E.M. of triplicate wells.
(§1) Human adipocytes (100,000 cells/well) obtained from Zen-Bio,Inc were cultured for 48 hr in the presence or absence of different doses of the cytokine mix (dilution as indicated) with and without IFN-γ (0.1 ug/ml). The amount of estradiol release in the conditioned media was determined by radioimmunoassay as described in Example 1. Each value represents the mean±S.E.M. of triplicate wells.
as §1, with “Zen-Bio, Inc” for “Zen-Bio,Inc”, “72” for “48”, “LPS (as” for “the cytokine mix (dilution as”, “ug/ml, LPS were purchased from Sigma).” for “ug/ml).”
as §1, with “Zen-Bio, Inc” for “Zen-Bio,Inc”, “the” for “the cytokine”, “mix LPS, PMA and PGE2” for “mix”, “ug/ml). IFN-γ was added at the same as the mix, 8 hr or 24 hr after the mix of the LPS, PMA and PGE2 which were purchased from Sigma.” for “ug/ml).”

Molecule: GH: human growth hormone
- estradiol production (stimulation by cytokine) (human preadipocytes; cytokine 5 ug/ml): stimulate

Molecule: IFN-α
- estradiol production stimulated by a mixture of 6 cytokines (human adipocytes; 72 hr, IFN-γ 0.1 ug/ml): do not inhibit

Molecule: IL-8: interleukin-8, cytokine
- estradiol production (stimulation by cytokine) (human preadipocytes; cytokine 0.5 ug/ml): stimulate

Molecule: IGF-1: insulin growth factor-1
- estradiol production (stimulation by cytokine) (human preadipocytes; cytokine 5 ug/ml): stimulate

B1: OSM: oncostatin M, cytokine (protein, UniProt P13725 26-221, looked up)
Oncostatin-M: AAIGSCSKEYRVLLGQLQKQTDLMQDTSRLLDPYIRIQGLDVPKLREHCRERPGAFPSEETLRGLGRRGFLQTLNATLGCVLHRLADLEQRLPKAQDLERSGLNIEDLEKLQMARPNILGLRNNIYCMAQLLDNSDTAEPTKAGRGASQPPTPTPASDAFQRKLEGCRFLHGYHRFMHSVGRVFSKWGESPNRSRR
- estradiol production (stimulation by cytokine) (human preadipocytes; cytokine 0.5 ug/ml): stimulate

B3: IL-1α: interleukin-1-alpha, cytokine purchased from R&D (protein, UniProt P01583 113-271, looked up)
Interleukin-1 alpha: SAPFSFLSNVKYNFMRIIKYEFILNDALNQSIIRANDQYLTAAALHNLDEAVKFDMGAYKSSKDDAKITVILRISKTQLYVTAQDEDQPVLLKEMPEIPKTITGSETNLLFFWETHGTKNYFTSVAHPNLFIATKQDYWVCLAGGPPSITDFQILENQA
- estradiol production (effect of cytokine alone) (human adipocytes; 24 hr, FIG. 1): significantly increased estradiol production

The next lines start with results.

- aromatase mRNA expression (induction by cytokine alone) (aromatase mRNA; 72 hr, FIG. 8): induce
Molecule: LIF: leukemia inhibitory factor, cytokine

- transcription of aromatase mRNA (cytokine alone compared to untreated control) (aromatase mRNA; adipocyte cultures, FIG. 3): induce
- aromatase mRNA expression (induction by cytokine alone) (aromatase mRNA; 72 hr, FIG. 8): induce
Molecule: IL-1β: interleukin-1 beta, cytokine purchased from R&D
- estradiol production (effect of cytokine alone) (human adipocytes; 24 hr, FIG. 1): significantly increased estradiol production

- aromatase mRNA expression (induction by cytokine alone) (aromatase mRNA; 72 hr, FIG. 8): induce
Molecule: TRAIL: tumor necrosis factor-related apoptosis-inducing ligand, obtained from Alexis

- aromatase mRNA expression (induction by cytokine alone) (aromatase mRNA; 72 hr, FIG. 8): induce
Molecule: IL-6: interleukin-6, cytokine
- estradiol production (stimulation by cytokine) (human preadipocytes; cytokine 0.5 ug/ml): stimulate

- constitutive aromatase mRNA (aromatase mRNA; adipocyte cultures, Example 3): Inhibited
- transcription of aromatase mRNA when given together IL-1 or TNF (aromatase mRNA; adipocyte cultures, FIG. 3): inhibits
- induced expression of aromatase mRNA by TRAIL, OX40, IL-1β, IL-6, IL-11 and LIF (aromatase mRNA; cytokines 0.1 ug/ml, IFN-γ 0.1 ug/ml, 72 hr, FIG. 8): inhibits
B2: IFN-γ: interferon-gamma, recombinant human, purchased from R&D (protein, UniProt P01579 24-161, looked up)
Interferon gamma: QDPYVKEAENLKKYFNAGHSDVADNGTLFLGILKNWKEESDRKIMQSQIVSFYFKLFKNFKDDQSIQKSVETIKEDMNVKFFNSNKKKRDDFEKLTNYSVTDLNVQRKAIHELIQVMAELSPAAKTGKRKRSQMLFRG
- estradiol production stimulated by a mixture of 15 cytokines (human adipocytes; 15 cytokines 0.01 ug/ml each, 48 hr, IFN-γ 0.1 ug/ml, FIG. 5): inhibited
- LPS stimulated estradiol production (human adipocytes; 72 hr, IFN-γ 0.1 ug/ml, FIG. 6): inhibits
- IL-1α and IL-1β induced estradiol production (human adipocytes; IFN-γ 0.1 ug/ml, 24 hr, FIG. 1): inhibits
- constitutive estradiol production (human adipocytes; IFN-γ 0.0001 to 1 ug/ml, 72 hr, FIG. 2): dose-dependent inhibitory effect
- PMA, LPS and PGE2 stimulated estradiol production (human adipocytes; mix PMA 5 ng/ml, LPS 10 ug/ml, PGE2 10 ug/ml, 48 hr, IFN-γ 0.1 ug/ml added at same time, 8 hr or 24 hr after the mix, FIG. 7): inhibits
- estradiol production stimulated by a mixture of 6 cytokines (human adipocytes; 72 hr, IFN-γ 0.1 ug/ml): inhibits

- aromatase mRNA expression (induction by cytokine alone) (aromatase mRNA; 72 hr, FIG. 8): induce
B4: IL-11: interleukin-11, cytokine (protein, UniProt P20809 22-199, looked up)
Interleukin-11: PGPPPGPPRVSPDPRAELDSTVLLTRSLLADTRQLAAQLRDKFPADGDHNLDSLPTLAMSAGALGALQLPGVLTRLRADLLSYLRHVQWLRRAGGSSLKTLEPELGTLQARLDRLLRRLQLLMSRLALPQPPPDPPAPPLAPPSSAWGGIRAAHAILGGLHLTLDWAVRGLLLLKTRL
- estradiol production (stimulation by cytokine) (human preadipocytes; cytokine 0.5 ug/ml): stimulate

- aromatase mRNA expression (induction by cytokine alone) (aromatase mRNA; 72 hr, FIG. 8): induce
B5: OX40L: OX40 Ligand, obtained from Alexis (protein, UniProt P23510 1-183, looked up)
Tumor necrosis factor ligand …: MERVQPLEENVGNAARPRFERNKLLLVASVIQGLGLLLCFTYICLHFSALQVSHRYPRIQSIKVQFTEYKKEKGFILTSQKEDEIMKVQNNSVIINCDGFYLISLKGYFSQEVNISLHYQKDEEPLFQLKKVRSVNSLMVASLTYKDKVYLNVTTDNTSLDDFHVNGGELILIHQNPGEFCVL
